Results published in the Human Domainome abundance scans (Beltran et al. 2025).

B1: E3 ubiquitin-protein ligase TRIM36, residues 208 to 252; numbered along this chain, Q9NQ86 (parent)
chain: KILMCPEHETERINMYCELCRRPVCHLCKLGGNHANHRVTTMSSA
B2: GAS2-like protein 1, residues 209 to 276; numbered along this chain, Q99501 (parent)
chain: DELVREILGRCTCPDQFPMIKVSEGKYRVGDSSLLIFVRVLRSHVMVRVGGGWDTLEHYLDKHDPCRC

Variants of: B1
Test: abundance fitness (aPCA) (normalised: wild type 0, dead -1); higher = more abundant; growth selection in yeast, the domain comes from the species named
Conditions: Homo sapiens

Abundance fitness of substitutions, site by site:
L3: K 0.006
C17: L -1.04; V -0.813
T41: K 0.007
V39: F -0.103; G 0.079
T40: E -0.04; A -0.027; L -0.243
E11: C -0.773
I2: T -0.097; F -0.001; N 0.011
P23: T 0.019; N -0.032; Y -0.069
K1: Q -0.236
N33: W -0.178
H34: A -0.334
K29: Y -0.012; I -0.13; Q 0.019
H8: T -0.72; A -0.951; N -0.819; F -0.795
E7: V -0.011
N36: T -0.024
C5: P -1.06
C25: Y -0.805; Q -0.532; S -0.665
R21: C -0.083; Q -0.002
L27: M -0.092
M4: T -0.072
L30: Q 0.067
V24: C -0.107
C20: K -0.547; R -0.561
R38: E 0.085; I -0.11
H37: C -0.007; R -0.242; P -0.194
N14: S -0.041; T 0.172
S44: V -0.047; T -0.028
E9: K 0.079; N -0.052; S 0.07
Y16: S -0.135; H 0.082; G -0.478
S43: Q 0.027; H -0.067; Y -0.439
P6: F -0.234; Q -0.042; N -0.139
G31: K -0.091; R -0.048
R22: S 0.047; V -0.01; W -0.34; T -0.09; L -0.029

Variants of: B2
Test: as above
Conditions: Homo sapiens

Abundance fitness of substitutions, site by site:
R10: W -0.728; V -0.747; I -0.766; T -0.111; F -0.448; E -0.386; G -0.432; H -0.013; K -0.135; P -0.863; C -0.72; A -0.311; Y -0.564; N -0.234; Q -0.088; S -0.318
E2: N 0.073; A -0.263; C -0.282; M -0.224; V -0.434; R 0; K 0.031; H -0.006; D 0.149; S -0.06; P -0.218; F 0.1; T 0.012; Y -0.057
P14: G -0.502; I -0.336; N -0.424; T -0.136; F -0.509; M -0.457; K 0.016; W -0.816; Q -0.161; R -0.147; S -0.162; A -0.142; C -0.439; V -0.213
D15: C -0.188; Y -0.151; S 0.026; P -0.964; I 0.014; L -0.058; H 0.017; N 0.087; F -0.259; R 0.018; M 0.046; T 0.125; K 0.034; Q -0.002; E 0.101; V 0.054; W -0.32; A 0.04; G -0.379
I7: R -0.85; H -0.473; T -0.38; L -0.012; Y -0.275; C -0.365; G -0.763; V -0.219; D -0.704; W -0.748; E -0.128; N -0.74; M -0.273; K -0.367; Q 0.069; P -1.04
R5: C -0.316; A 0.056; Y -0.185; Q 0.084; L -0.178; N 0.194; V -0.584; E 0.056; H -0.15; P -0.947; K 0.091; T -0.059; W -0.126; D -0.161; I -0.465; S 0.093; G -0.158; F -0.257
V4: I 0.049; Q -1.01; A -0.804; E -0.463; S -0.836; R -0.71; N -0.876; H -0.855; G -0.966; L -0.388; M -0.34; D -0.888; C -0.717; T -0.833; K -0.685; W -0.796; F -0.35
G9: D 0.107; V -0.587; P -0.818; S 0.077; M -0.127; W -0.71; N -0.076; R -0.204; I -0.572; Q 0.061; H -0.221; K -0.12; C -0.54; L -0.445; F -0.399; T -0.346; E 0.03; A 0.007
L8: Q -0.323; N -0.793; S -0.532; A -0.352; I -0.002; D -0.702; F -0.704; G -0.819; Y -1.05; H -0.436; R -0.754; T -0.414; V -0.071; W -0.886; M -0.254; E -0.737; C -0.47; P -0.819; K -0.948
D1: T -0.707; L -0.761; H -0.693; Y -0.574; K -0.233; C -0.657; W -0.621; A -0.623; F -0.55; P -0.517; R -0.624; E -0.087; S -0.205; V -0.653; N -0.536; G -0.596
L3: T -0.526; Q -0.025; D -0.559; Y -0.268; P -0.711; F -0.221; N -0.675; V -0.324; I -0.129; S -0.459; R 0.01; W -0.643; M -0.034; K -0.06; H -0.34; E -0.627; C -0.117
E6: G -0.347; M -0.309; R -0.165; C -0.701; F -0.708; K -0.151; I -0.521; D -0.136; N -0.431; Y -0.694; P -0.864; Q -0.071; L -0.446; S -0.205; V -0.642; W -0.821; T -0.141; H -0.452
Q16: I -0.351; H -0.486; G -0.131; P 0.131; N -0.634; S -0.172; T -0.11; M -0.276; E -0.42; V -0.269; A -0.224; Y -0.848; F -0.623; K 0.113
C11: V -0.752; P -1.17; M -0.771; Q -0.986; T -0.882; H -0.966; W -1; R -0.932; L -0.895; E -1; D -0.84; Y -0.892; A -0.618; F -0.848; I -1.08; K -0.949; S -0.961
C13: D -0.752; I -0.304; M -0.786; K -1.13; R -0.851; S -0.728; G -0.682; P -0.972; W -0.922; L -0.719; Q -0.869; V -0.306; E -0.726; H -0.874; F -0.894; T -0.817; A -0.974; Y -0.744
T12: D -0.797; N -0.355; Y -0.8; H -0.542; C -0.247; L -0.664; I -0.313; W -0.831; S -0.181; P -0.749; E -0.381; V -0.267; Q -0.193; M -0.419; K -0.169
